Measurements published in publication PMC5696648.

Key:
[1] = system: LexA S119A (Escherichia coli); assay: EMSA
[2] = system: LexA WT (Escherichia coli); assay: EMSA

Substance: 44-bp SOS consensus operator duplex
- Kd [1]: 43 nM
- Kd [2]: 47 nM
